Data from paper PMC12255766 (2025).

B1: Venus::LAT-1 (C. elegans latrophilin homolog LAT-1 fused to Venus) [C. elegans] / Nluc::LAG-2 (C. elegans DSL protein/Notch ligand LAG-2 fused to Nanoluciferase) [C. elegans] (parent complex)
chain 1: SNKPTTDESGTISHTICDGEAAELSCPAGKVISIVLGNYGRFSVAVCLPDNDIVPSNINCQNHKTKSILEKKCNGDSMCYFTVDKKTFTEDPCPNTPKYLEVKYNCVVPATTTTTTTTTSTTTTDSSLIVDEEEEAQKDALNSDVIKPVKKKEDVFCSATNRRGVNWQNTKSGTTSSAPCPEGSSGKQLWACTEEGQWLTEFPNSAGCESNWISSRNSVLSGVISSEDVSGLPEFLRNLGSETRRPMVGGDLPKVLHLLEKTVNVIAEESWAYQHLPLSNKGAVEVMNYMLRNQEIWGSWDVTKRKEFASRFILAAEKAMVASAKGMMTSAESNVIVQPAITVEISHKIKMSSQPTDYILFPSAALWNGQNVDNVNIPRDAILKINKDETQVFFSSFDNLGAQMTPSDVTVAIAGTDQTEVRKRRVVSRIVGASLIENGKERRVENLTQPVRITFYHKESSVRHLSNPTCVWWNHHELKWKPSGCKLSYHNKTMTSCDCTHLTHFAVLMDVRGHDLNEIDQTLLTLLTYVGCIISIICLLLTFFAYLIFSRNGGDRVFIHENLCLSLAIAEITFLAGITRTEDSLQCGIIAVALMYMFLSALTWMLLEGYHIHRMLTEVFPSDPRRFTYLLVGYIPPAIITLVAYLYNSDGFGTPDHCWLSTQNNFIWFFAGPACFIFCANSLVLVKTLCTVYQHTSGGYLPCRHDVDSGRSIRNWVKGSLALASLLGVTWIFGLFWVEDSRSIVMAYVFTISNSLQGLFIFLFHVVFAEKMRKDVGHWMYRRGCGGSSNSSPNHKRHNVQRDLMSPGVNSSTGSDFLYNTNDKYLTNSDTTNRLVYNGIMNHPNQMSVYQQHPHHQIYEQQPGTYDYATIAYGDMMPGHRVAAPPAYQRLAVAEGRYGSQHQLYQGWHHRPPPEFSPPPPPLSTGPPNSRHYGTGSSGRRPPSSKMSDDSAYSDGSSSMLTTEVTPQGQTVLRIDLNKPSMYCQDL
chain 2: QARVEVHQEFISSKRVSVRFEIVTESHSPNRPVTFDLFPRGPKTNIILLDTFNPVFNFSIQLVQPFTGQPLGDRIYRKVQFSGTNQPWINDTFTTTSGISLSVATEVTCARNYFGNRCENFCDAHLAKAARKRCDAMGRLRCDIGWMGPHCGQAVDPRKCSCENDGICVSSMIHPSQPNQTSSNEQLICECTNGFTGTRCEIFGFNQFQLTAPRPDACSVKDACLNGAKCFPNGPKVFCSCAVGFIGEFCEISLTTTTPTTVEITVSTSGYSSAVYITVALFVIFSIIIGCFKYKFKPMRQQALARGQVPEPYKMPETKSMLIDPEASEAQKKVFTIEGSVQKIDEEVRYTSAPRKYESNNEYAVIQKSTPPPPSLSPPSIPACHYV

Variants of: B1
Experiment: NanoBRET; HEK293 cells; Venus::LAT-1 acceptor, Nluc::LAG-2 donor; parent: 0.0042; read off a plot

| screen value | Variant |
| --- | --- |
| ~0.0025 | chain 1 Q354A, chain 1 P355A, chain 1 D357A, chain 1 Y358A, chain 1 L360A, chain 1 L366A, chain 1 W367A |
| ~0.0053 | chain 1 L36A, chain 1 F42A, chain 1 D50A, chain 1 D52A, chain 1 V54A |
